# Source: patent US7867500B2, “Cofactor that modulates steroid receptor activities” (The United States of America as represented by the …, priority 2004, dated 2011)
# T1: GR (Rattus norvegicus, UniProt P06536)
# T1 construct: plus VP16 fused to the indicated full length receptors; expressed in transfected cells; host or cells: CV-1
# T1 sequence (P06536 1-795): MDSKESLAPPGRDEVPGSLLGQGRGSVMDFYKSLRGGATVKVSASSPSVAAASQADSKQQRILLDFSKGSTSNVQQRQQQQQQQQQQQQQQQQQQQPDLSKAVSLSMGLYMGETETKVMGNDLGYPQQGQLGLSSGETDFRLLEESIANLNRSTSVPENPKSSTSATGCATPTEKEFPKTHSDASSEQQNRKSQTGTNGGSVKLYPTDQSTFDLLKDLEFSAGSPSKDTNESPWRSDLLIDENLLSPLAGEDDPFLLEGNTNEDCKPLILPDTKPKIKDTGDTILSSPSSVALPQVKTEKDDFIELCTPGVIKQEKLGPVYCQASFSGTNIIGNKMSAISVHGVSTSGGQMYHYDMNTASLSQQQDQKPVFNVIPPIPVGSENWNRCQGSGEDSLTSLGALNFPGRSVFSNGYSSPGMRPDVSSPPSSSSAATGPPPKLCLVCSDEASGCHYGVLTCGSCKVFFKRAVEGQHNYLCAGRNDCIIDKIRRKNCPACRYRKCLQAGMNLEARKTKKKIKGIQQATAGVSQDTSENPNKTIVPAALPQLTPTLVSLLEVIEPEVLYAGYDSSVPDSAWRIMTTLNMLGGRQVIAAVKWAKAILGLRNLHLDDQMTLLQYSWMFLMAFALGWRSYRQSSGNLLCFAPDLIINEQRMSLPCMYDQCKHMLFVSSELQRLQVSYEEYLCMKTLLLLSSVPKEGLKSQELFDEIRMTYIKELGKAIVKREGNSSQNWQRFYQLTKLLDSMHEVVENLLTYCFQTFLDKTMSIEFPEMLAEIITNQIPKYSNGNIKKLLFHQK
# T2: RAR α (Homo sapiens, UniProt P10276)
# T2 construct: plus VP16 fused to the indicated full length receptors; expressed in transfected cells; host or cells: CV-1
# T2 sequence (P10276 1-462): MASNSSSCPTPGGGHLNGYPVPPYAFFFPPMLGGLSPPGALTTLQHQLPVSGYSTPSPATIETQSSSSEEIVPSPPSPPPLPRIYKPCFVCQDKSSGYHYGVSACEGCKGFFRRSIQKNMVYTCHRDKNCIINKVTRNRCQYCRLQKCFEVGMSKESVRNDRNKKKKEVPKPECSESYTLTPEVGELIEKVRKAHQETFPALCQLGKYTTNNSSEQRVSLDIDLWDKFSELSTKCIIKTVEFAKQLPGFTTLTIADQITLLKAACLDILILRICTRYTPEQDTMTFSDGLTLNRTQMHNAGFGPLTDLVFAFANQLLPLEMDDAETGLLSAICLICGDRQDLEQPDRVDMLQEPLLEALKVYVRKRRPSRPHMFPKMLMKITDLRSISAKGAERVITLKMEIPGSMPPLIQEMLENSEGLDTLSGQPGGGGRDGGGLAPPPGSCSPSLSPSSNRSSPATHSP
# B1: 6-6CL1: STAMP fragment amino acids 623-834, coactivator interaction domain (CID) (protein)
# chain: ENTPKENSMKVREWNNKGGHCCKLETQELEPKFNLMQILQDNGNLSKMQARIAFSAYLQHVQIRLMKDSGGQTFSASWAAKEDEQMELVVRFLKRASNNLQHSLRMVLPSRRLALLERRRILAHQLGDFIIVYNKETEQMAEKKSKKKVEEEEEDGVNMENFQEFIRQASEAELEEVLTFYTQKNKSASVFLGTHSKISKNNNNYSDSGAKG
# B2: STAMP834C: STAMP fragment amino acids 834-1277, receptor interaction domain (RID) (protein)
# chain: GDHPETIMEEVKIKPPKQQQTTEIHSDKLSRFTTSAEKEAKLVYSNSSSGPTATLQKIPNTHLSSVTTSDLSPGPCHHSSLSQIPSAIPSMPHQPTILLNTVSASASPCLHPGAQNIPSPTGLPRCRSGSHTIGPFSSFQSAAHIYSQKLSRPSSAKAGSCYLNKHHSGIAKTQKEGEDASLYSKRYNQSMVTAELQRLAEKQAARQYSPSSHINLLTQQVTNLNLATGIINRSSASAPPTLRPIISPSGPTWSTQSDPQAPENHSSSPGSRSLQTGGFAWEGEVENNVYSQATGVVPQHKYHPTAGSYQLQFALQQLEQQKLQSRQLLDQSRARHQAIFGSQTLPNSNLWTMNNGAGCRISSATASGQKPTTLPQKVVPPPSSCASLVPKPPPNHEQVLRRATSQKASKGSSAEGQLNGLQSSLNPAASVPITSSTDPAHTKI
# Experiments:
# Assay type in all cases: cell-based
# GR = biological target: T1, GR; experiment: Mammalian two-hybrid assay in CV-1 cells with VP16/GR; conditions: VP16/GR ± 1 μM Dex
# From the text: FIGS. 6A and 6B illustrate the domains of STAMP that interact with TIF2.4 (FIG. 6A) and GR (FIG. 6B) in the mammalian two-hybrid assay. […] These CV-1 cells were also transfected with GAL fused to the indicated segments of STAMP along with the FRLuc reporter and Renilla control plasmids. After determining the relative luciferase activities as described in FIG. 2B and 2C, the average values±S.E.M. from 2-5 experiments were plotted. The average fold increase for VP16/TIF2.4 with GAL/STAMP(623-834) in FIG. 6A was 11.0±3.0 (SEM, n=5) above the VP16 control. The values in parentheses above the data bars in FIG. 6B indicate the fold increased interaction ±1 μM Dex.
# These assays were conducted as described (He et al., 2002). In particular, the recommended procedure for the Mammalian Matchmaker two-hybrid assay kit (Clontech) was modified slightly by changing from a chloramphenicol acetyltransferase reporter to a Luciferase Reporter pFRLuc (Stratagene), which is under the control of five repeats of the upstream activating sequence for the binding of GAL4.
# TIF2.4m123 = experiment: Mammalian two-hybrid assay in CV-1 cells with TIF2.4m123; conditions: equal amounts of protein
# From the text: FIG. 2A-2C illustrate the isolation and characterization of the partial clone of the protein that binds to TIF2.4. […] Five clones were obtained but only two (clones I and V) contained a protein that was needed for colony growth in the presence of the pSos/TIF2.4 fusion protein. After initial screening, only clone I (also named 6-6CL1) was selected for further investigation. FIG. 2B and FIG. 2C illustrate the selectivity of 6-6CL1 interactions with TIF2.4 in mammalian two-hybrid assays. Triplicate samples of CV-1 cells in 24-well plates were transiently transfected with the indicated GAL-DBD and VP16-AD plasmids along with the GAL4-regulated reporter, pFRLuc. The relative luciferase activity, normalized for the activity of the internal Renilla control, was determined and plotted as the average±S.D. The much lower activity of GAL/TIF2.4m123 was previously shown not to be due to unequal levels of protein expression (He et al., 2002). Similar results were obtained in three additional experiments. […] Triplicate samples of CV-1 cells in 24-well plates were analyzed as in (B&C) after being transiently transfected with GAL±6-6CL1 constructs and pFRLuc reporter along with VP16 chimeras of SRC-1 (FIG. 2D) or TIF2 (FIG. 2E) segments. Similar results for SRC-1 were obtained in two additional experiments (ND=not determined). […]
# RAR α = biological target: T2, RAR α; experiment: Mammalian two-hybrid assay with VP16 full length receptor: RARα; conditions: 1 μM 9-cis-retinoic acid
# Description: FIG. 6C1-3 illustrate the association of STAMP with assorted steroid/nuclear receptors, including glucocorticoid receptors (GRs), progesterone receptors (PRs), androgen receptors (ARs), estrogen receptors (ER α or β), PPARγ2 receptors, thyroid receptor beta (TR), and retinoid (α) receptors (RAR α or RXR α). Triplicate samples of CV-1 cells were transfected (as described for FIG. 6B) with GAL, or GAL fused to TIF2.4 or STAMP834C, plus VP16 fused to the indicated full length receptors and incubated with the appropriate steroid (1 μM Dex, 20 nM R5020, 1 nM R1881, 0.1 μM triiodothyronine, or 1 μM estradiol, roziglitazone, or 9-cis-retinoic acid). The average relative luciferase activities of 2-3 experiments±S.E.M. were then plotted. FIG. 6C1 illustrates the effects of STAMP association upon GR, PR and AR induced expression. FIG. 6C2 illustrates the effects of STAMP association upon ERα, ERβ and PPARγ2 induced expression. FIG. 6C3 illustrates the effects of STAMP association upon TR, RARα and RXRα induced expression.
# These assays were conducted as described (He et al., 2002). […]
Molecule,interaction with GR (GR),interaction with TIF2.4m123 (TIF2.4m123),interaction with retinoid (α) receptor (RAR α)
B1,relative inactivity,did not interact,
B2,largest agonist-induced changes,,lack of interaction
